Test results taken from patent US7807881B2, “Methods to confer herbicide resistance” (Athenix Corp., priority 2003, dated 2010).

B1: GDC-2: Glyphosate resistance-conferring decarboxylase protein (SEQ ID NO:15) with TPP-binding domains, homologous to acetolactate synthase (protein)
chain: MMLRSRQASKALRALGQARHFTSTTQPAAVQAPRKVASGQRNQATAATATSAAPNVRATPSPAFNAEEQQQQKHSHVQPLVNPQKSDMDESFIGKTGGEIFHEMMLRQGVKHIFGYPGGAILPVFDAIYNSKHFDFILPRHEQGAGHMAEGYARASGKPGVVLVTSGPGATNVVTPMQDALSDGTPLVVFCGQVPTSAIGSDAFQEADVVGISRACTKWNVMVKNVAELPRRINEAFEIATSGRPGPVLVDLPKDVTAGILRRAIPTETALPALPSAASRAAMESSRKHLEHTIKRVADLVNKAKQPVIYAGQGIIQSEGGPELLKELADKASIPVTTTLQGLGGFDELDEKSLHMLGMHGSAYANMAMQEADLIIALGARFDDRVTLNVAKFAPGARAAAAEKRGGIVHFEVMPKNINKVVQATEAVEGNVGSNLKLLLPEVQAKTMDDRKEWFGKINEWKKKWPLSHYERAERHGLIKPQTLIEELSKLTADRKDKTYIATGVGQHQMWTAQHFRWRHPRSMITSGGLGTMGFGLPAAIGAKVAQPDALVFDIDGDASFGMTLTELATAAQFNIGVKVIVLNNEEQGMVTQWQNLFYEDRYAHTHQVNPDFMKLAESMRVQGRRCVDPEDVVDSLKWLINTDGPALLEVVTDKKVPVLPMVPAGSALHEFLVFDGEKDKKRRELMRERTSGLHG
modifications: Fungal isolate from soil sample
B2: GDC-1: Glyphosate resistance-conferring decarboxylase protein (SEQ ID NO:22) with TPP-binding domains, homologous to pyruvate decarboxylase (protein)
chain: MASINIRVQNLEQPMDVAEYLFRRLHEIGIRSIHGLPGDYNPLALDYLPSCGLRWVGSVNELNAAYAADGYARVKQMGALITTFGVGELSAINGVAGAFSEHVPVVHIVGCPSTASQRNGMLLHHTLGNGDFNIFANMSAQISCEVAKLTNPAEIATQIDHALRVCFIRSRPVYIMLPTDMVQAKVEGARLKEPIDLSEPPNDPEKEAYVVDVVLKYLRAAKNPVILVDACAIRHRVLDEVHDLIEKTNLPVFVTPMGKGAVNEEHPTYGGVYAGDGSHPPQVKDMVESSDLILTIGALKSDFNTAGFSYRTSQLNTIDLHSDHCIVKYSTYPGVQMRGVLRQVIKQLDASEINAQPAPVVENEVAKNRDNSPVITQAFFWPRVGEFLKKNDIVITETGTANFGIWDTKFPSGVTALSQVLWGSIGWSVGACQGAVLAAADDNSDRRTILFVGDGSFQLTAQELSTMIRLKLKPIIFVICNDGFTIERFIHGMEAEYNDIANWDFKALVDVFGGSKTAKKFAVKTKDELDSLLTDPTFNAAECLQFVELYMPKEDAPRALIMTAEASARNNAKTE
modifications: Fungal isolate from soil sample

How the values were obtained:
E. coli = experiment: Growth of E. coli clones in M9 minimal media containing glyphosate (OD600); assay type: cell-based; details: 37° C., 28 hours after inoculation, triplicate
Experimental: Starter cultures of E. coli containing GDC-1 (full), GDC-2, or vector alone were grown overnight in LB media, diluted 1:1000 into 3 ml M9 minimal media containing 0, 2, 5, 10, 20 and 30 mM glyphosate and grown at 37° C. Each strain was grown in triplicate at each concentration. OD600 was measured at 0, 7, 24, and 28 hours after inoculation.

E. coli ΔaroA = experiment: Genetic complementation of aroA (EPSP synthase) deletion mutant; assay type: cell-based; details: ΔaroA plated on LB, M63, and M63 with phenylalanine, tryptophan, tyrosine
Source text: The E. coli aroA gene codes for EPSP synthase, the target enzyme for glyphosate. […] However, genes encoding EPSPS activity can restore ability to grow […] upon aroA mutant E. coli strains. Thus, a test for genetic complementation of an aroA mutant is a highly sensitive method to test if a gene is capable of functioning as an EPSPS in E. coli. Such tests for gene function by genetic complementation are known in the art.
A deletion of the aroA gene was created in E. coli XL-1 MRF′ (Stratagene) by PCR/recombination methods known in the art and outlined by Datsenko and Wanner, (2000) Proc. Natl. Acad. Sci. USA 97:6640-6645. This system is based on the Red system that allows for chromosomal disruptions of targeted sequences. A large portion (1067 nt of the 1283 nt) of the aroA coding region was disrupted by the engineered deletion.
The ability of an EPSPS to complement the mutant phenotype of ΔaroA was confirmed. Clone pAX482, an E. coli expression vector containing the wild-type E. coli aroA gene, was transformed into ΔaroA, and transformed cells were selected. These cells (containing a functional aroA gene residing on a plasmid) were then plated on LB media, M63, and M63 with amino acid supplements. […]

[1] = Acetolactate synthase activity (acetoin detection, absorbance 525 nm); assay type: biochemical; details: 50 mM pyruvate, pH 7.0, 2 hours at 37° C.
Experimental: Acetolactate synthases are decarboxylating enzymes that condense two pyruvate molecules to form acetolactate with the release of a CO2 moiety from one of the pyruvate substrates. In the detection of the enzymatic reaction described by Pang and Duggleby (Pang and Duggleby (1999) Biochemistry 18:5222-5231), the product acetolactate is converted to acetoin by incubation with 1% H2SO4 for 15 minutes at 60° C. followed by neutralization with KOH. The acetoin is then detected as described by Westerfeld (Westerfeld (1945) J. Biol. Chem. 161:495-502), using 0.15% creatine and 1.5% alpha-naphthol (dissolved in 2.5 N NaOH). The red colored reaction product is quantified by absorbance at 525 nm.
Samples containing either 5 μg or 10 μg of GDC-2 were incubated in 50 mM pyruvate, 1 mM […] pyrophosphate, 10 mM MgCl2, 0.01 mM Flavin adenine dinucleotide (FAD), 100 mM potassium phosphate buffer pH 7.0 (total reaction volume of 50 μl) for 2 hours at 37° C. The reaction was stopped by the addition of 1 μl of 50% sulfuric acid (H2SO4) and incubated at 60° C. for 15 minutes. The reaction was neutralized by the addition of 30 μl of 1 N KOH followed by the addition of 10 μl of 1.5% creatine and 10 μl of 15% alpha-napthol dissolved in 2.5 N NaOH. The red colored reaction product was quantified by absorbance at 525 nm.

[2] = In vitro modification of C14 labeled glyphosate, products analysed by HPLC; assay type: biochemical; details: 100 ng protein, 2 mM glyphosate, Na-Citrate pH 6.0, 1 mM TPP, 2 mM MgCl2, 60 minutes
Experimental: The ability of GDC-1 to modify glyphosate in vitro was tested by incubating GDC-1 with a mixture of radiolabeled and non-labeled glyphosate, and analyzing the reaction products by HPLC.
100 ng of GDC-1 purified protein was incubated with 20,000 cpm of C^14 labeled glyphosate (NaOOCCH2NH^14CH2PO3H2; Sigma catalog #G7014), mixed with unlabelled glyphosate to a final concentration of 2 mM in a reaction buffer of 200 mM Na-Citrate, pH 6.0, 1 mM TPP, 2 mM MgCl2. Reaction was allowed to proceed 60 minutes, then 5 μl was applied to HPLC column (Dionex AminoPac PA10 analytical (and guard) column, anion exchange resin; Dionex Corporation). The column was equilibrated with 150 mM sodium hydroxide. Fractions were eluted with a sodium acetate gradient of 150-300 mM sodium acetate. Single drop (40 uL) fractions were collected, and the radioactivity present in each fraction determined using a 96-well scintillation counter. […] Control experiments lacking purified GDC-1 show no peak at this elution time.

[3] = Standard pyruvate decarboxylase assay, coupled with alcohol dehydrogenase (absorbance at 340 nm); assay type: biochemical; details: 100 ng of GDC-1 protein; decrease in absorbance at 340 nm
Experimental: 100 ng of GDC-1 protein was tested for activity in a standard pyruvate decarboxylase assay (Gounaris et al. (1971) J. of Biol. Chem. 246:1302-1309). This assay is a coupled reaction where in the first step the pyruvate decarboxylase (PDC) converts pyruvate to acetaldehyde and CO2. The acetaldehyde produced in this reaction is a substrate for alcohol dehydrogenase, which converts acetaldehyde and β-NADH to ethanol and β-NAD. Thus, PDC activity is detected by virtue of utilization of β-NADH as decrease in absorbance at 340 nm in a spectrophotometer. GDC-1 as well as a control enzyme (pyruvate decarboxylase, Sigma) were tested in this assay.

Molecule | OD600 Mean (E. coli; 0 mM glyphosate) | OD600 Mean (E. coli; 2 mM glyphosate) | OD600 Mean (E. coli; 5 mM glyphosate) | OD600 Mean (E. coli; 10 mM glyphosate) | OD600 Mean (E. coli; 20 mM glyphosate) | Complementation of the aroA mutation (growth of ΔaroA on M63 minimal media) (E. coli ΔaroA) | Absorbance 525 nm (acetolactate synthase activity) ([1]; 5 μg GDC-2) | Absorbance 525 nm (acetolactate synthase activity) ([1]; 10 μg GDC-2) | Ability to modify glyphosate in vitro [2] | Pyruvate decarboxylase activity [3]
B1 | 0.050 | 0.054 | 0.056 | 0.056 | 0.058 | neither GDC-1 nor GDC-2 are capable of complementing the aroA mutation | 1.99 | 3.13 |  | 
B2 | 0.049 | 0.056 | 0.055 | 0.057 | 0.058 | neither GDC-1 nor GDC-2 are capable of complementing the aroA mutation |  |  | converts a portion of the labeled glyphosate to a product | showed activity as a pyruvate decarboxylase
